The results in this text go back to paper PMC10841842, “Single-molecule quantitation of RNA-binding protein occupancy and stoichiometry defines a role for Yra1 (Aly/REF) in nuclear mRNP organization” (Cell reports, 2023).

The data set deals with the molecule itself. Nature of the data set: pull-down; mRNP-SiMPull: lysate of cryo-ground yeast cross-linked with 0.2% formaldehyde, PrA-tagged bait pulled down on rabbit IgG Dynabeads at 8°C for 10 min (mTBT16 buffer: 20 mM HEPES-KOH pH 7.4, 12.5 mM KOAc, 2 mM MgCl2, 0.5% Triton X-100, 0.1% Tween 20), eluted by HRV3C protease, captured on a slide by mNG, HA or Yra1 antibody, TIRF imaging; spot counts and photobleaching steps, no-PrA control subtracted ….

B1: Mft1, mNG-tagged (natural protein, S. cerevisiae, UniProt P33441 1-392, looked up)
chain: MPLSQKQIDQVRTKVHYSEVDTPFNKYLDILGKVTKLTGSIINGTLSNDDSKIEKLTEQNISQLKESAHLRFLDLQSSIDTKKVADENWETCQQETLAKLENLKDKLPDIKSIHSKLLLRIGKLQGLYDSVQVINREVEGLSEGRTSLVVTRAEWEKELGTDLVKFLIEKNYLKLVDPGLKKDSSEERYRIYDDFSKGPKELESINASMKSDIENVRQEVSSYKEKWLRDAEIFGKITSIFKEELLKRDGLLNEAEGDNIDEDYESDEDEERKERFKRQRSMVEVNTIENVDEKEESDHEYDDQEDEENEEEDDMEVDVEDIKEDNEVDGESSQQEDNSRQGNNEETDKETGVIEEPDAVNDAEEADSDHSSRKLGGTTSDFSASSSVEEVK
notes: Mft1, THO complex subunit, S. cerevisiae; also called THO complex subunit Mft1; source: S. cerevisiae BY4741/2-derived tagged strain, in cryo-ground cell lysate
With B1, the “stoichiometry N” value was determined as 2.

B2: Hpr1-mNG (natural protein, S. cerevisiae, UniProt P17629 1-752, looked up)
chain: MSNTEELIQNSIGFLQKTFKALPVSFDSIRHEPLPSSMLHASVLNFEWEPLEKNISAIHDRDSLIDIILKRFIIDSMTNAIEDEEENNLEKGLLNSCIGLDFVYNSRFNRSNPASWGNTFFELFSTIIDLLNSPSTFLKFWPYAESRIEWFKMNTSVEPVSLGESNLISYKQPLYEKLRHWNDILAKLENNDILNTVKHYNMKYKLENFLSELLPINEESNFNRSASISALQESDNEWNRSARERESNRSSDVIFAADYNFVFYHLIICPIEFAFSDLEYKNDVDRSLSPLLDAILEIEENFYSKIKMNNRTRYSLEEALNTEYYANYDVMTPKLPVYMKHSNAMKMDRNEFWANLQNIKESDDYTLRPTIMDISLSNTTCLYKQLTQEDDDYYRKQFILQLCFTTNLIRNLISSDETRNFYKSCYLRENPLSDIDFENLDEVNKKRGLNLCSYICDNRVLKFYKIKDPDFYRVIRKLMSSDEKFTTAKIDGFKEFQNFRISKEKIPPPAFDETFKKFTFIKMGNKLINNVWKIPTGLDKIEQEVKKPEGVYEAAQAKWESKISSETSGGEAKDEIIRQWQTLRFLRSRYLFDFDKVNEKTGVDGLFEEPRKVEALDDSFKEKLLYKINQEHRKKLQDAREYKIGKERKKRALEEEASFPEREQKIKSQRINSASQTEGDELKSEQTQPKGEISEENTKIKSSEVSSQDPDSGVAGEFAPQNTTAQLENPKTEDNNAATSNISNGSSTQDMK
notes: Hpr1, THO complex component, S. cerevisiae; End of the tag read from the name; also called THO complex component Hpr1; source: S. cerevisiae BY4741/2-derived tagged strain, in cryo-ground cell lysate; not shown: mNeonGreen (mNG), C-terminal, kept
As to B2, the “stoichiometry N” value amounted to 2.

Usually stoichiometry N stands for the number of molecules, sites or subunits per partner or assembly.
